In patent US10584350B2, “Structurally modified COI1” (Board of Trustees of Michigan State University, priority 2016, dated 2020):
Changes are numbered by the printed parent chain. Numbers in names are those of the source.

B1: R409A: COI1 alanine substitution mutant at R409 (protein)
chain: MEDPDIKRCKLSCVATVDDVIEQVMTYITDPKDRDSASLVCRRWFKIDSETREHVTMALCYTATPDRLSRRFPNLRSLKLKGKPRAAMFNLIPENWGGYVTPWVTEISNNLRQLKSVHFRRMIVSDLDLDRLAKARADDLETLKLDKCSGFTTDGLLSIVTHCRKIKTLLMEESSFSEKDGKWLHELAQHNTSLEVLNFYMTEFAKISPKDLETIARNCRSLVSVKVGDFEILELVGFFKAAANLEEFCGGSLNEDIGMPEKYMNLVFPRKLCRLGLSYMGPNEMPILFPFAAQIRKLDLLYALLETEDHCTLIQKCPNLEVLETRNVIGDRGLEVLAQYCKQLKRLRIERGADEQGMEDEEGLVSQRGLIALAQGCQELEYMAVYVSDITNESLESIGTYLKNLCDFALVLLDREERITDLPLDNGVRSLLIGCKKLRRFAFYLRQGGLTDLGLSYIGQYSPNVRWMLLGYVGESDEGLMEFSRGCPNLQKLEMRGCCFSERAIAAAVTKLPSLRYLWVQGYRASMTGQDLMQMARPYWNIELIPSRRVPEVNQQGEIREMEHPAHILAYYSLAGQRTDCPTTVRVLKEPI
B2: A384G: COI1 substitution mutant at A384 (protein)
chain: B1 chain with A384G, A409R
B3: COI1A384I: COI1 mutant, alanine 384 substituted with isoleucine (protein)
chain: B1 chain with A384I, A409R
modifications: left off: small tags and cut ends
notes: COI1 mutant, alanine 384 substituted with isoleucine
B4: COI1A86I: COI1 mutant, alanine 86 substituted with isoleucine (protein)
chain: B1 chain with A86I, A409R
modifications: left off: small tags and cut ends
notes: COI1 mutant, alanine 86 substituted with isoleucine
B5: A384P: COI1 substitution mutant at A384 (protein)
chain: B1 chain with A384P, A409R
B6: COI1A384S: COI1 mutant, alanine 384 substituted with serine (protein)
chain: B1 chain with A384S, A409R
modifications: left off: small tags and cut ends
notes: COI1 mutant, alanine 384 substituted with serine
B7: A384L: COI1 substitution mutant at A384 (protein)
chain: B1 chain with A384L, A409R
B8: COI1A86V: COI1 mutant, alanine 86 substituted with valine (protein)
chain: B1 chain with A86V, A409R
modifications: left off: small tags and cut ends
notes: COI1 mutant, alanine 86 substituted with valine
B9: A384N: COI1 substitution mutant at A384 (protein)
chain: B1 chain with A384N, A409R
B10: A384T: COI1 substitution mutant at A384 (protein)
chain: B1 chain with A384T, A409R
B11: R496A: COI1 alanine substitution mutant at R496 (protein)
chain: B1 chain with A409R, R496A
B12: A384C: COI1 substitution mutant at A384 (protein)
chain: B1 chain with A384C, A409R
B13: A384D: COI1 substitution mutant at A384 (protein)
chain: B1 chain with A384D, A409R

How the values were obtained:
COI1-JAZ9 interaction [1] = details: Y2H; Thines et al., Melotto et al.; cited from earlier work
PR1 gene expression = assay: qPCR of SA-responsive gene PR1; format: in vivo, Arabidopsis; details: plants expressing the protein
Protocol: (§1) Col-0 and transgenic seeds were germinated on half-strength MS medium. Five-day-old seedlings were transferred into liquid half-strength MS medium. Segregating coil-30 seeds were germinated on half-strength MS medium with 10 μM MeJA. and MeJA-resistant 5-d-old seedlings were transferred into liquid half-strength MS medium. Next, 10 μM MeJA (Sigma), 0.2 μM COR or 0.1% DMSO were applied to 12-d-old seedlings. Samples were collected after 3 h and total RNA was extracted using Qiagen RNeasy Mini kit (Qiagen). M-MLV Reverse transcriptase (Life Technologies) and SYBR Green master mix (Life Technologies) were used for reverse-transcription and real-time PCR. Primers used were: […]

SID2 gene expression = assay: qPCR of SA-responsive gene SID2; format: in vivo, Arabidopsis; details: plants expressing the protein
Protocol: as §1

Pst DC3000 = assay: Bacterial infection assay, dip-inoculation; format: in vivo, Pseudomonas syringae pv tomato; details: 3 days after dip-inoculation
Protocol: The Pseudomonas syringae infection assays in Arabidopsis were performed as described by Yao et al. (Methods Mol Biol 1011:63-81 (2013)). In brief, 4- to 5-wk-old (12-h light/12-h dark) Arabidopsis plants were dip-inoculated with bacterial suspension (1×10^8 cfu/mL Pst DC3000 or Psm ES4326 in 0.25 mM MgCl2 solution with 0.025% Silwet-77) or syringe-infiltrated with bacterial suspension (1×10^6 cfu/mL Pst DC3118 or DB29 in 0.25 mM MgCl2 solution). Bacterial growth was determined by serial dilutions of plant extracts 3 or 4 days after inoculation. Homozygous COI1-30 plants were selected by genotyping before bacterial infection.

Spodoptera exigua = assay: Insect feeding assays; format: in vivo
Protocol: Insect bioassays were performed as described by Herde et al. (Methods Mol Biol 1011:51-61 (2013)). Briefly, eggs of Spodoptera exigua were obtained from Benzon Research, and four neonate Spodoptera exigua larvae were transferred to the center of each 6-wk-old Arabidopsis host plant. Plants were grown under 8-hour light (100 μE·m^2·s) and 16-h dark and covered with cup cages. Larval weights were determined after 9-12 days of feeding.

root growth = assay: Root growth inhibition assays; format: in vivo, Arabidopsis
Protocol: Col-0, segregating COI1-30, transgenic COI1WT, and COI1A384V seeds were surface-sterilized, cold-stratified, and germinated on half-strength MS agar media containing MeJA, COR, or DMSO at the indicated concentrations. Seedlings were grown under long-day light conditions (16-h light at 100 μE·m^2·s, and 8-h dark) for 10-12 days before scanning images of roots. Root lengths were measured using ImageJ software (see website at rsbweb.nih.gov/ij/).

JAZ9 gene expression = assay: qPCR of JA-responsive marker gene JAZ9; format: in vivo, Arabidopsis; details: 10 μM MeJA or 0.2 μM COR, 3 h
Protocol: as §1

COI1-JAZ9 interaction [2] = assay: Y2H assays on plates for protein-protein interaction; format: cell-based, Arabidopsis; details: 10 μM COR, yeast
Protocol: (§2) Yeast EGY48 strain carrying the p8Op:LacZ reporter plasmid was co-transformed with pGilda:COI1 (or COI1 mutants) and pB42AD:JAZ9 (or other JAZs) (Clontech). Colonies were selected on SD minimal plates (BD Biosciences) supplemented with the—uracil (U)/-tryptophan (W)/-histidine (H) amino acid drop out solution (Clontech). Yeast colonies were cultured overnight in liquid SD-UWH medium, harvested, washed twice in sterile water, and the absorbance (OD600) of the cultures was adjusted to 0.2 in liquid SD galactose/raffinose-UWH medium (BD Biosciences).
For Y2H assays on plates, 10-μL culture was spotted onto SD galactose/raffinose-UWH plates with 80 μg/mL X-gal and 10 μM COR (Sigma-Aldrich). Blue color indicated protein-protein interactions after 5-7 days of incubation at 30° C.

COI1-JAZ9 interaction [3] = assay: Quantitative liquid Y2H assays (Beta-Glo, RLU); format: cell-based, Arabidopsis; details: liquid Y2H, yeast; for COR-dependent COI1-JAZ9 interaction: 1 μM COR; for JA-Ile-dependent COI1-JAZ9 interaction: 10 or 30 μM JA-Ile
Protocol: as §2
For liquid Y2H assays, cultures were supplemented with designated concentrations of JA-Ile (10 or 30 μM), COR (1 μM), or DMSO. After 16-h incubation with ligands, the liquid cultures were processed through the Beta-Glo Assay system (Promega) for detecting the β-galactosidase activity. […] Protein expression in yeast was detected using anti-LexA antibody (1:5,000; Upstate Biotechnology) for detection of COI1 expression from pGilda vector and anti-HA (1:5,000; Roche Life Science) antibody for detection of JAZ9 expression in pB42AD vector.

Row | Molecule | COR-dependent COI1-JAZ9 interaction (COI1-JAZ9 interaction [3]) | JA-Ile-dependent COI1-JAZ9 interaction (COI1-JAZ9 interaction [3]) | also measured
1 | CC/C=C\C[C@H]1C(=O)CC[C@@H]1CC(=O)O [JA, jasmonic acid] | – | – | activity in yeast (COI1-JAZ9 interaction [1]): not active
2 | COI1WT: wild type COI1 (SEQ ID NO:1) expressed in COI1-30-null background; control transgenic lines | – | – | expression of PR1 gene (PR1 gene expression): similarly low; expression of SID2 gene (SID2 gene expression): similarly low; resistance / susceptibility to Pst DC3000 (bacterial growth and disease symptoms) (Pst DC3000): highly susceptible; weight of larvae compared with Col-0 (Spodoptera exigua; 12-day-old larvae, one-way ANOVA with Dunnett test): No significant difference; average weight of larvae feeding on COI1-30 plants higher than larvae reared on these plants (Spodoptera exigua; S. exigua neonate larvae): six-fold
3 | CC/C=C\CC1C(=O)CCC1CC(=O)OC (centres unmarked) [MeJA, methyl jasmonate] | – | – | concentrations of comparable potency in inhibiting root growth (root growth; COI1A384V plants): 0.1 µM; concentrations with equivalent effect on root growth inhibition (root growth; wild-type Col-0 plants): 10 µM; induction of JAZ9 expression compared with that in COI1-30 plants (JAZ9 gene expression; COI1A384V L1 line): 38 fold; JAZ9 gene expression in response to treatment compared with Col-0 or COI1WT plants (JAZ9 gene expression; COI1A384V lines): less affected; JAZ9 gene expression after application (JAZ9 gene expression; Col-0 and COI1WT plants): induced; activity in yeast (COI1-JAZ9 interaction [1]): not active
4 | B1 | reduced | reduced | COR-dependent COI1-JAZ9 interaction (COI1-JAZ9 interaction [2]): reduced
5 | B2 | completely disrupted | completely disrupted | –
6 | B3 | disrupted | disrupted | –
7 | B4 | reduced | abolished | –
8 | B5 | completely disrupted | completely disrupted | –
9 | B6 | – | reduced | –
10 | B7 | completely disrupted | completely disrupted | –
11 | B8 | reduced | abolished | –
12 | B9 | completely disrupted | completely disrupted | –
13 | B10 | completely disrupted | completely disrupted | –
14 | B11 | – | – | COR-dependent COI1-JAZ9 interaction (COI1-JAZ9 interaction [2]): reduced; differential effect on JA-Ile-dependent vs COR-dependent COI1-JAZ9 interaction (COI1-JAZ9 interaction [3]): affect JAIle-dependent interaction more than COR-dependent interaction
15 | B12 | reduced | reduced | –
16 | B13 | completely disrupted | completely disrupted | –
